B1: TFE3 (parent)
chain: ELPNIKREISETEAKALLKERQKK
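Note: lentivirally expressed fusions sorted by FACS into six bins by GFP to DsRed ratio, PSI derived from sequencing read proportions per bin multiplied by bin number.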

Variants of: B1
Assay: protein stability index of a GFP-peptide fusion (GPS, HEK-293T) (PSI 1-6); higher = more stable
Conditions: c terminus: a fixed tail appended
Variant ELPNIKREISETEAKALLKERQKL [K24L] has a protein stability index of 2.53. Work on ELPNIKREISETEAKALLKERQKQ [K24Q] yielded a protein stability index of 2.84. Variant ELPNIKREISETEAKALLKERQKS [K24S] has a protein stability index of 2.28. In the case of ELPNIKREISETEAKALLKERQKD [K24D], the protein stability index is reported as 2.91. ELPNIKREISETEAKALLKERQKH [K24H] gave a protein stability index of 2.2. Variant ELPNIKREISETEAKALLKERQKP [K24P] has a protein stability index of 2.17. ELPNIKREISETEAKALLKERQKW [K24W] gave a protein stability index of 2.44. ELPNIKREISETEAKALLKERQKY [K24Y] showed a protein stability index of 2.69. With ELPNIKREISETEAKALLKERQKI [K24I] the protein stability index was 2.69. Variant ELPNIKREISETEAKALLKERQKN [K24N] has a protein stability index of 3.05. ELPNIKREISETEAKALLKERQKR [K24R] showed a protein stability index of 2.15. ELPNIKREISETEAKALLKERQKA [K24A] showed a protein stability index of 2.46. For ELPNIKREISETEAKALLKERQKC [K24C], the protein stability index was 2.71. With ELPNIKREISETEAKALLKERQKG [K24G] the protein stability index was 2.76. ELPNIKREISETEAKALLKERQKV [K24V] gave a protein stability index of 2.96. With ELPNIKREISETEAKALLKERQKT [K24T] the protein stability index was 2.79. In the case of ELPNIKREISETEAKALLKERQKE [K24E], the protein stability index is reported as 3.37. For ELPNIKREISETEAKALLKERQKF [K24F], the protein stability index was 2.03. ELPNIKREISETEAKALLKERQKM [K24M] showed a protein stability index of 2.19. For ELPNIKREISETEAKALLKERQDK [K23D], the protein stability index was 2.56. In the case of ELPNIKREISETEAKALLKERQLK [K23L], the protein stability index is reported as 2.91. Variant ELPNIKREISETEAKALLKERQTK [K23T] has a protein stability index of 2.86. ELPNIKREISETEAKALLKERQAK [K23A] showed a protein stability index of 2.19. Work on ELPNIKREISETEAKALLKERQGK [K23G] yielded a protein stability index of 2.42. Variant ELPNIKREISETEAKALLKERQVK [K23V] has a protein stability index of 2.61. For ELPNIKREISETEAKALLKERQSK [K23S], the protein stability index was 2.8. Work on ELPNIKREISETEAKALLKERQIK [K23I] yielded a protein stability index of 2.34. ELPNIKREISETEAKALLKERQCK [K23C] showed a protein stability index of 3.09. In the case of ELPNIKREISETEAKALLKERQYK [K23Y], the protein stability index is reported as 2.1. With ELPNIKREISETEAKALLKERQWK [K23W] the protein stability index was 2.36. With ELPNIKREISETEAKALLKERQRK [K23R] the protein stability index was 2.78. Variant ELPNIKREISETEAKALLKERQFK [K23F] has a protein stability index of 2.36. For ELPNIKREISETEAKALLKERQHK [K23H], the protein stability index was 2.44. ELPNIKREISETEAKALLKERQNK [K23N] gave a protein stability index of 2.85. Work on ELPNIKREISETEAKALLKERQPK [K23P] yielded a protein stability index of 2.35. In the case of ELPNIKREISETEAKALLKERQEK [K23E], the protein stability index is reported as 2.64. Work on ELPNIKREISETEAKALLKERQQK [K23Q] yielded a protein stability index of 2.45. Work on ELPNIKREISETEAKALLKERQMK [K23M] yielded a protein stability index of 2.4. ELPNIKREISETEAKALLKERTKK [Q22T] showed a protein stability index of 2.52. ELPNIKREISETEAKALLKERMKK [Q22M] gave a protein stability index of 2.75. For ELPNIKREISETEAKALLKERNKK [Q22N], the protein stability index was 2.5. Variant ELPNIKREISETEAKALLKERKKK [Q22K] has a protein stability index of 2.35. ELPNIKREISETEAKALLKERYKK [Q22Y] showed a protein stability index of 1.8. With ELPNIKREISETEAKALLKERIKK [Q22I] the protein stability index was 2.52. With ELPNIKREISETEAKALLKERPKK [Q22P] the protein stability index was 2.34. ELPNIKREISETEAKALLKERFKK [Q22F] gave a protein stability index of 2.34. ELPNIKREISETEAKALLKEREKK [Q22E] showed a protein stability index of 2. ELPNIKREISETEAKALLKERLKK [Q22L] showed a protein stability index of 2.24. ELPNIKREISETEAKALLKERWKK [Q22W] gave a protein stability index of 2.4. With ELPNIKREISETEAKALLKERCKK [Q22C] the protein stability index was 2.71. ELPNIKREISETEAKALLKERAKK [Q22A] gave a protein stability index of 2.73. With ELPNIKREISETEAKALLKERRKK [Q22R] the protein stability index was 2.9. For ELPNIKREISETEAKALLKERHKK [Q22H], the protein stability index was 2.73. With ELPNIKREISETEAKALLKERVKK [Q22V] the protein stability index was 2.83. For ELPNIKREISETEAKALLKERGKK [Q22G], the protein stability index was 2.77. ELPNIKREISETEAKALLKERSKK [Q22S] showed a protein stability index of 2.73. For ELPNIKREISETEAKALLKERDKK [Q22D], the protein stability index was 2.11. ELPNIKREISETEAKALLKENQKK [R21N] showed a protein stability index of 2.91. In the case of ELPNIKREISETEAKALLKEKQKK [R21K], the protein stability index is reported as 2.5. Work on ELPNIKREISETEAKALLKEPQKK [R21P] yielded a protein stability index of 2.32. In the case of ELPNIKREISETEAKALLKEDQKK [R21D], the protein stability index is reported as 2.88. ELPNIKREISETEAKALLKEQQKK [R21Q] showed a protein stability index of 2.73. For ELPNIKREISETEAKALLKECQKK [R21C], the protein stability index was 2.43. For ELPNIKREISETEAKALLKELQKK [R21L], the protein stability index was 2.97. ELPNIKREISETEAKALLKEFQKK [R21F] gave a protein stability index of 2.38. For ELPNIKREISETEAKALLKETQKK [R21T], the protein stability index was 2.82. Variant ELPNIKREISETEAKALLKEMQKK [R21M] has a protein stability index of 2.25. With ELPNIKREISETEAKALLKEAQKK [R21A] the protein stability index was 3.07. In the case of ELPNIKREISETEAKALLKEEQKK [R21E], the protein stability index is reported as 2.74. ELPNIKREISETEAKALLKEHQKK [R21H] gave a protein stability index of 2.63. ELPNIKREISETEAKALLKEYQKK [R21Y] showed a protein stability index of 2.72. For ELPNIKREISETEAKALLKESQKK [R21S], the protein stability index was 1.81. Work on ELPNIKREISETEAKALLKEVQKK [R21V] yielded a protein stability index of 2.53. Work on ELPNIKREISETEAKALLKEIQKK [R21I] yielded a protein stability index of 2.66. Work on ELPNIKREISETEAKALLKEGQKK [R21G] yielded a protein stability index of 2.28. ELPNIKREISETEAKALLKEWQKK [R21W] gave a protein stability index of 2.15. Variant ELPNIKREISETEAKALLVERQKK [K19V] has a protein stability index of 2.8. Variant ELPNIKREISETEAKALLIERQKK [K19I] has a protein stability index of 2.84. For ELPNIKREISETEAKALLEERQKK [K19E], the protein stability index was 2.62. ELPNIKREISETEAKALLHERQKK [K19H] showed a protein stability index of 2.36. With ELPNIKREISETEAKALLFERQKK [K19F] the protein stability index was 2.65. In the case of ELPNIKREISETEAKALLQERQKK [K19Q], the protein stability index is reported as 2.83. For ELPNIKREISETEAKALLPERQKK [K19P], the protein stability index was 2.29. ELPNIKREISETEAKALLAERQKK [K19A] showed a protein stability index of 2.7. For ELPNIKREISETEAKALLNERQKK [K19N], the protein stability index was 2.57. For ELPNIKREISETEAKALLRERQKK [K19R], the protein stability index was 2.32. Variant ELPNIKREISETEAKALLGERQKK [K19G] has a protein stability index of 1.71. In the case of ELPNIKREISETEAKALLWERQKK [K19W], the protein stability index is reported as 2.29. With ELPNIKREISETEAKALLTERQKK [K19T] the protein stability index was 2.42. ELPNIKREISETEAKALLMERQKK [K19M] gave a protein stability index of 2.89. In the case of ELPNIKREISETEAKALLLERQKK [K19L], the protein stability index is reported as 2.84. Variant ELPNIKREISETEAKALLYERQKK [K19Y] has a protein stability index of 3.06. ELPNIKREISETEAKALLSERQKK [K19S] gave a protein stability index of 2.53. With ELPNIKREISETEAKALLDERQKK [K19D] the protein stability index was 2.52.

— the supplement of paper PMC10567573
